Test results from the Human Domainome abundance scans (Beltran et al. 2025).
± gives the uncertainty stated by the source.

B1: POU domain, class 3, transcription factor 4, residues 280 to 335; numbered along this chain, P49335 (parent)
chain: KKRTSIEVSVKGVLETHFLKCPKPAAQEISSLADSLQLEKEVVRVWFCNRRQKEKR
B2: Chromodomain-helicase-DNA-binding protein 3, residues 374 to 426; numbered along this chain, Q12873 (parent)
chain: YETDHQDYCEVCQQGGEIILCDTCPRAYHLVCLDPELDRAPEGKWSCPHCEKE

Variants of: B1
Experiment: abundance fitness (aPCA) (normalised: wild type 0, dead -1); higher = more abundant; growth selection in yeast, the domain comes from the species named
Conditions: Homo sapiens

Variant	abundance fitness
S31K	0.022 ± 0.18
S31Q	-0.031 ± 0.16
S31E	-0.058 ± 0.22
S31T	0.035 ± 0.15
L38I	0.048 ± 0.26
L38P	-0.932 ± 0.29
L38Q	-0.89 ± 0.26
L38T	-0.607 ± 0.21
L38W	-0.884 ± 0.21
W46I	-0.688 ± 0.25
W46V	-0.82 ± 0.17
W46G	-0.639 ± 0.15
W46H	-0.647 ± 0.35
W46T	-0.709 ± 0.19
W46P	-0.953 ± 0.29
Q52V	-0.378 ± 0.14
Q52L	-0.055 ± 0.13
Q52F	-0.931 ± 0.38
Q52W	-0.685 ± 0.23
Q52T	-0.351 ± 0.22
Q52I	-0.126 ± 0.23
Q52G	-0.34 ± 0.13
Q52N	0.273 ± 0.27
R44A	-0.193 ± 0.13
R44Y	-0.643 ± 0.34

Variant	abundance fitness
R44T	-0.343 ± 0.16
R44V	-0.84 ± 0.16
R44W	-0.68 ± 0.2
T16W	-0.347 ± 0.18
T16L	-0.304 ± 0.14
T16I	-0.428 ± 0.27
T16A	0.197 ± 0.14
T16N	-0.223 ± 0.29
T16R	0.059 ± 0.13
T16E	0.368 ± 0.16
T16Q	0.044 ± 0.2
P22H	-0.513 ± 0.26
P22Y	-0.949 ± 0.33
P22C	-0.502 ± 0.27
P22M	-0.553 ± 0.21
P22W	-0.166 ± 0.22
P22Q	0.208 ± 0.19
P22E	-0.702 ± 0.21
E41H	-0.161 ± 0.21
E41A	-0.776 ± 0.19
E41L	-0.955 ± 0.15
E41F	-0.841 ± 0.23
E41S	-0.368 ± 0.13
E41D	0.043 ± 0.2
E41T	-0.466 ± 0.21

Variant	abundance fitness
V13D	-0.518 ± 0.43
V13C	-0.454 ± 0.3
V13R	-0.215 ± 0.14
V13Y	-0.354 ± 0.48
V13S	-0.038 ± 0.25
V13I	-0.235 ± 0.32
P24G	-0.842 ± 0.4
P24R	-0.405 ± 0.22
V10E	0.262 ± 0.28
V10K	-0.12 ± 0.36
V10A	0.393 ± 0.18
V10M	0.058 ± 0.38
K11R	-0.076 ± 0.2
K11D	0.119 ± 0.41
K11H	-0.207 ± 0.49
N49G	-0.711 ± 0.17
N49F	-0.574 ± 0.18
N49D	0 ± 0.23
N49S	-0.308 ± 0.14
N49Q	0 ± 0.16
N49W	-0.885 ± 0.21
N49P	-0.724 ± 0.21
N49Y	-0.752 ± 0.23
Q27T	-0.335 ± 0.15
Q27R	-0.054 ± 0.12

Variant	abundance fitness
Q27W	-0.295 ± 0.15
Q27V	-0.434 ± 0.12
Q27D	0.147 ± 0.19
Q27K	-0.157 ± 0.17
Q27P	-0.761 ± 0.24
Q27H	-0.074 ± 0.26
L14S	-0.693 ± 0.11
L14D	-0.825 ± 0.24
L14F	-0.887 ± 0.25
E54T	-1.06 ± 0.4
E54V	-0.634 ± 0.17
E54G	-0.808 ± 0.16
E54A	-0.788 ± 0.2
E54F	-0.836 ± 0.44
L19S	-0.191 ± 0.14
L19P	-0.774 ± 0.26
L19M	0.039 ± 0.2
L19C	-0.385 ± 0.16
L19Q	-0.045 ± 0.22
L19I	-0.441 ± 0.32
L19T	-0.019 ± 0.19
L19W	-0.624 ± 0.2
L19R	-0.236 ± 0.1
K23F	0.137 ± 0.17
K23V	-0.225 ± 0.11

Variant	abundance fitness
K23Y	0.396 ± 0.19
K23S	0.17 ± 0.11
K23M	0.149 ± 0.18
K23W	0.037 ± 0.18
K23I	-0.369 ± 0.25
V45H	-0.077 ± 0.26
V45F	-0.517 ± 0.37
V45W	-0.337 ± 0.18
V45K	0.165 ± 0.18
V45R	-0.062 ± 0.13
V45S	0.097 ± 0.15
V45C	-0.243 ± 0.36
V8S	0.546 ± 0.14
V8C	-0.326 ± 0.23
V8Q	0.405 ± 0.2
V8K	0.842 ± 0.22
V8A	0.354 ± 0.14
E39P	-0.022 ± 0.17
E39Q	-0.522 ± 0.41
E39R	-0.572 ± 0.12
E39S	-0.074 ± 0.12
E39T	-0.421 ± 0.26
E39H	-0.551 ± 0.43
E39F	-0.735 ± 0.34
E39W	-0.746 ± 0.21

Variant	abundance fitness
E39K	-0.583 ± 0.34
L32F	-0.877 ± 0.38
L32Q	-0.916 ± 0.35
L32W	-0.614 ± 0.28
L32A	-0.247 ± 0.21
L32T	-0.939 ± 0.46
L32E	-0.631 ± 0.36
I6V	-0.215 ± 0.093
I6G	-0.197 ± 0.12
I6R	-0.292 ± 0.12
I6S	-0.152 ± 0.086
I6Q	-0.123 ± 0.15
I6F	-0.397 ± 0.099
I6H	-0.128 ± 0.097
I6E	-0.303 ± 0.2
I6D	-0.249 ± 0.12
D34H	0.069 ± 0.2
D34M	-0.479 ± 0.21
D34W	-0.801 ± 0.16
S35G	-0.638 ± 0.15
S35E	0.115 ± 0.17
S35F	-0.249 ± 0.14
S35T	-0.01 ± 0.13
S35W	-0.707 ± 0.2
V43S	-0.852 ± 0.17

Variant	abundance fitness
V43F	-0.567 ± 0.28
V43E	-0.815 ± 0.33
V43P	-0.774 ± 0.23
V43W	-1.19 ± 0.38
V43C	-0.832 ± 0.27
V43G	-0.687 ± 0.17
V43R	-0.738 ± 0.15
E7K	0.271 ± 0.15
E7I	-0.357 ± 0.11
E7P	0.607 ± 0.084
E7F	-0.513 ± 0.12
E7Y	-0.285 ± 0.099
E7V	-0.362 ± 0.12
E7T	0.526 ± 0.087
R50A	-0.582 ± 0.14
R50E	-0.814 ± 0.21
R50M	-0.692 ± 0.34
R50L	-0.93 ± 0.2
F18Y	-0.195 ± 0.18
F18P	-0.992 ± 0.29
F18Q	-1.16 ± 0.39
F18I	-0.851 ± 0.26
F18M	-0.893 ± 0.22
F18V	-0.56 ± 0.11
F18H	-0.251 ± 0.22

Variant	abundance fitness
S30M	-0.262 ± 0.19
S30F	-0.332 ± 0.2
S30V	-0.058 ± 0.11
S30K	-0.003 ± 0.18
S30N	-0.196 ± 0.2
S30L	-0.536 ± 0.16
S30C	-0.396 ± 0.27
S30H	-0.706 ± 0.24
E28K	-0.713 ± 0.29
E28M	-0.355 ± 0.2
E28W	-0.484 ± 0.31
A26F	-0.451 ± 0.26
A26G	-0.37 ± 0.12
A26I	-0.168 ± 0.21
A26V	-0.254 ± 0.13
A26L	-0.07 ± 0.11
C21I	-0.58 ± 0.21
C21E	-0.546 ± 0.28
C21H	-0.533 ± 0.2
C21N	0.31 ± 0.19
C21A	-0.756 ± 0.18
C21W	-0.846 ± 0.22
K40R	-0.071 ± 0.14
K40T	0.181 ± 0.16
K40M	-0.269 ± 0.15

Variant	abundance fitness
K40Q	-0.063 ± 0.19
K40W	-0.539 ± 0.18
K40V	0.097 ± 0.14
K40L	-0.418 ± 0.14
F47G	-0.745 ± 0.18
F47R	-0.677 ± 0.17
F47A	-0.65 ± 0.17
F47E	-0.872 ± 0.23
R56T	0.002 ± 0.39
R56N	0.38 ± 0.48
R56E	0.387 ± 0.2
R56S	0.015 ± 0.27
R56L	-0.075 ± 0.19
E15R	-0.985 ± 0.18
E15D	-0.998 ± 0.41
E15A	-0.539 ± 0.16
E15I	-0.368 ± 0.21
E15Q	-0.789 ± 0.31
E15S	-0.845 ± 0.17
E15P	-0.659 ± 0.21
E15V	-0.756 ± 0.16
R51C	-0.506 ± 0.24
R51Q	-0.237 ± 0.18
R51D	-0.839 ± 0.34
R51S	-0.549 ± 0.18

Variant	abundance fitness
R51M	-0.243 ± 0.21
R51K	-1.04 ± 0.35
R51A	-0.309 ± 0.14
A25S	0.457 ± 0.1
A25L	-0.262 ± 0.11
A25K	-0.015 ± 0.33
A25F	-0.769 ± 0.21
A25Q	0.045 ± 0.16
A25W	-0.764 ± 0.17
A25C	0.18 ± 0.11
A25R	-0.088 ± 0.096
R3C	0.174 ± 0.14
R3G	0.077 ± 0.1
R3Q	-0.354 ± 0.21
R3W	-0.706 ± 0.22
R3P	0.122 ± 0.16
R3V	-0.15 ± 0.13
R3N	0.033 ± 0.24
R3M	0.011 ± 0.23
S9M	-0.392 ± 0.25
S9D	0.539 ± 0.28
S9F	-0.348 ± 0.28
S9C	-0.017 ± 0.27
S9T	0.008 ± 0.24
H17A	0.085 ± 0.13

Variant	abundance fitness
H17I	-0.542 ± 0.31
H17N	-0.458 ± 0.37
H17V	-0.017 ± 0.12
H17M	-0.019 ± 0.15
H17D	-1 ± 0.34
H17E	-0.172 ± 0.16
K53M	-0.049 ± 0.29
K53W	-0.888 ± 0.33
K53Y	-0.616 ± 0.31
K53E	0.194 ± 0.18
K20W	-0.832 ± 0.18
K20P	-0.805 ± 0.22
K20N	-0.475 ± 0.18
K20F	-0.344 ± 0.15
K20A	-0.339 ± 0.15
K20R	-0.386 ± 0.12
K20T	-0.129 ± 0.16
K20H	-0.693 ± 0.26
V42M	-0.401 ± 0.2
V42Y	-0.396 ± 0.43
V42F	-0.318 ± 0.26
V42L	-0.122 ± 0.13
V42G	-0.648 ± 0.17
V42W	-0.291 ± 0.15
V42E	0.185 ± 0.2

Variant	abundance fitness
C48D	0.023 ± 0.25
C48V	0.058 ± 0.15
C48K	0.282 ± 0.24
C48Q	0.154 ± 0.16
C48T	-0.187 ± 0.21
C48S	0.078 ± 0.13
C48P	-0.762 ± 0.21
C48W	-0.073 ± 0.16
T4C	-0.249 ± 0.18
T4P	-0.178 ± 0.15
T4K	0.011 ± 0.17
T4H	-0.925 ± 0.36
K1S	-0.132 ± 0.24
K1M	-0.03 ± 0.27
K1E	-0.049 ± 0.3
K1R	-0.312 ± 0.2
Q37F	-0.615 ± 0.38
Q37V	-0.923 ± 0.29
Q37S	-0.081 ± 0.2
Q37R	-0.21 ± 0.17
Q37L	-0.664 ± 0.29
Q37H	0.104 ± 0.22
K55Q	-0.016 ± 0.48
K55I	-0.604 ± 0.27
K55D	-0.223 ± 0.28

Variant	abundance fitness
K55M	-0.264 ± 0.26
K55T	-0.417 ± 0.2
K55R	-0.027 ± 0.14
K2T	-0.277 ± 0.2
K2P	-0.559 ± 0.27
K2D	-0.342 ± 0.26
K2E	-0.526 ± 0.28
K2Y	-0.159 ± 0.27
G12R	-0.219 ± 0.36
G12D	0.288 ± 0.44
G12K	-0.009 ± 0.35
A33P	-0.907 ± 0.3
A33Y	-0.917 ± 0.39
A33I	-0.802 ± 0.31
S5V	0.275 ± 0.12
S5W	-0.162 ± 0.14
S5Q	0.268 ± 0.18
S5P	-0.158 ± 0.19
S5M	0.289 ± 0.22
S5C	0.2 ± 0.16

Variants of: B2
Experiment: as above
Conditions: Homo sapiens

Variant	abundance fitness
Y1N	-0.287 ± 0.25
Y1L	0.172 ± 0.27
Y1W	0.259 ± 0.21
Y1K	0.352 ± 0.46
Y1G	0.416 ± 0.21
Y1V	0.156 ± 0.2
Y1I	0.557 ± 0.34
Y1S	-0.264 ± 0.34
Y1D	-0.2 ± 0.19
Y1E	0.154 ± 0.33
Y1C	0.258 ± 0.21
E2A	-0.263 ± 0.1
E2C	0.138 ± 0.15
E2D	0.327 ± 0.12
